Seven molecules from patent publication US20110300138A1 (published 2011) can be followed below.

In assay [1] the target is T1, human TSH receptor (full length), coated on ELISA plate wells (human, UniProt P16473 22-764).
T1 construct: TSHR coated ELISA plate wells of the TRAb ELISA; also called thyroid stimulating hormone receptor
The assay is described as follows: ELISA, inhibition of M22 Fab-peroxidase (competitor) binding to TSHR coated wells; 1 µg/mL in HBD serum; mean ± SD. A general note: An ELISA detects its analyte on a solid surface through an enzyme-linked reagent.

For assay [2], the target named is T1, human TSH receptor (full length), …. The assay is described as follows: ELISA, inhibition of M22 Fab-peroxidase (competitor) binding to TSHR coated wells; 0.1 µg/mL in HBD serum; mean ± SD.
Assay [3] has the same target. Nature of the assay: ELISA, inhibition of M22 Fab-peroxidase (competitor) binding to TSHR coated wells; 0.01 µg/mL in HBD serum; mean ± SD.
Assay [4] has the same target. Nature of the assay: ELISA, inhibition of M22 Fab-peroxidase (competitor) binding to TSHR coated wells; 0.03 µg/mL in HBD serum; mean ± SD.
The target is the same in assay [5]. Nature of the assay: ELISA, inhibition of M22 Fab-peroxidase (competitor) binding to TSHR coated wells; 1 µg/mL in assay buffer; mean ± SD.
Assay [6] shares this target. Nature of the assay: ELISA, inhibition of M22 Fab-peroxidase (competitor) binding to TSHR coated wells; 0.1 µg/mL in assay buffer; mean ± SD.
Assay [7] has the same target. Nature of the assay: ELISA, inhibition of M22 Fab-peroxidase (competitor) binding to TSHR coated wells; 0.01 µg/mL in assay buffer; mean ± SD.
Assay [8] has the same target. The assay is described as follows: ELISA, inhibition of M22 Fab-peroxidase (competitor) binding to TSHR coated wells; 0.03 µg/mL in assay buffer; mean ± SD.
Assay [9] deals with T2, TSHR260-alkaline phosphatase (TSHR260-AP) (human, UniProt P05187 23-511).
T2 construct: Fusion of human TSHR amino acids 22-260 (construct codes 1-260, 1-21 being the leader) with secreted alkaline phosphatase, expressed in insect cells; In the ELISA the antibody bridges full length detergent-solubilised TSHR coated on the wells and TSHR260-AP in the liquid phase
Nature of the assay: TSHR260-AP bridge ELISA, full length TSHR on wells; 10 µg/mL, diluted in HBD. The procedure: (§1) An ELISA was established based on the ability of divalent TSHR antibodies to bind with one antigen binding site to TSHR coated onto an ELISA plate well and with the other antigen binding site to TSHR260-AP in a liquid phase i.e. forming a bridge. TSHR in the form of full length detergent-solubilised receptor expressed in CHO cells was coated onto ELISA plate wells via a C-terminal antibody as described previously (Bolton J et al 1999 supra). In the assay 75 μL of start buffer (as described for TRAb ELISA; Bolton J, et al 1999 supra) and 75 μL of test sample (patient sera or monoclonal antibodies) were added to the ELISA plate wells coated with the full length detergent solubilised TSHR and incubated for 2 hours at room temperature with shaking (500 rpm). Then the contents of the wells were removed, the wells washed 3 times with wash buffer (50 mmol/L NaCl, 20 mmol/L Tris pH 7.8, 1% Triton X-100) followed by addition of […] of TSHR260-AP (diluted in wash buffer containing 0.2 g/L MgCl₂-6H₂O and 2 g/L BSA). After incubation for 1 hour at room temperature with shaking (500 rpm) the wells were emptied, washed (3 times) and 100 μL of p-nitrophenyl phosphate (pNpp) substrate (Europa Bioproducts Ltd, Ely, Cambridge UK) added and the plate incubated in the dark for 45 minutes. Thereafter 100 μL of stop solution (1 mol/L NaOH) was added and the absorbance read at 405 nm in an ELISA plate reader. […] In some experiments solubilised preparations of recombinant TSHR containing mutation R255D expressed in CHO cells were used to coat the ELISA plate wells.
(§2) TSHR260-AP is a fusion protein consisting of a fragment of human TSHR (amino acids 22-260) e with alkaline phosphatase. […] Mean absorbance = mean of duplicate determinations.

Assay [10] addresses T2, TSHR260-alkaline phosphatase …. Nature of the assay: TSHR260-AP bridge ELISA, full length TSHR on wells; 0.1 µg/mL, diluted in HBD. The protocol:
as §1, §2

The target is the same in assay [11]. The assay is described as follows: TSHR260-AP bridge ELISA, full length TSHR on wells; 250 µg/mL, diluted in HBD. The protocol:
as §1, §2

The target is the same in assay [12]. The assay is described as follows: TSHR260-AP bridge ELISA, full length TSHR on wells; 0.005 µg/mL, diluted in HBD. The protocol: as §1, §2
Assay [13] shares this target. The assay is described as follows: TSHR260-AP bridge ELISA, full length TSHR on wells; 10 µg/mL, diluted in assay buffer. The procedure: as §1, §2
Assay [14] shares this target. The assay is described as follows: TSHR260-AP bridge ELISA, full length TSHR on wells; 0.1 µg/mL, diluted in assay buffer. The procedure: as §1, §2
The target is the same in assay [15]. Nature of the assay: TSHR260-AP bridge ELISA, full length TSHR on wells; 250 µg/mL, diluted in assay buffer. The protocol: as §1, §2
Assay [16] shares this target. The assay is described as follows: TSHR260-AP bridge ELISA, full length TSHR on wells; 0.005 µg/mL, diluted in assay buffer. The protocol: as §1, §2

B1: K1-70 IgG (antibody, V domains shown)
VH: EVQLVQSGAEVKKPGQSLKISCKASGYSLTDNWIGWVRQKPGKGLEWMGIIYPGDSDTRYSPSFQGQVTISADKSINTAYLQWSSLKASDTAIYYCVGLDWNYNPLRYWGPGTLVTVSS
VL: QSVLTQPPSVSAAPGQKVTISCSGSSSDIGSNYVSWYQQFPGTAPKLLIYDNNKRPSAIPDRFSGSKSGTSATLGITGLQTGDEADYYCGTWDSRLGIAVFGGGTQLTVLG
notes: Human IgG1 with lambda light chains, purified from hetero-hybridoma culture supernatant
Consider B1, for which the “Inhibition of binding (%)” value stood at 96.4% in assay [1]; 69.7% in [2]; 9.2% in assay [3]; 34.5% in [4]; 98.1% in assay [5]; 93% in assay [6]. In addition, the “Inhibition of binding (%)” value in [7] was found to be 28%; in [8] it was 71.8%.

B2: K1-70 Fab (Fab, V domains shown)
VH: EVQLVQSGAEVKKPGQSLKISCKASGYSLTDNWIGWVRQKPGKGLEWMGIIYPGDSDTRYSPSFQGQVTISADKSINTAYLQWSSLKASDTAIYYCVGLDWNYNPLRYWGPGTLVTVSS
VL: QSVLTQPPSVSAAPGQKVTISCSGSSSDIGSNYVSWYQQFPGTAPKLLIYDNNKRPSAIPDRFSGSKSGTSATLGITGLQTGDEADYYCGTWDSRLGIAVFGGGTQLTVLG
notes: also called Fab of K1-70
As for B2, the “Inhibition of binding (%)” value in assay [1] amounted to 96.1%; in assay [2], 86%; in [3], 27.9%; in [4] it was 58.8%; in assay [5], 97.2%; in assay [6], 94.6%. For the same molecule, the “Inhibition of binding (%)” value in [7] stood at 57.5%; in assay [8], 82%.

B3: K1-70 Fab (Fab, V domains shown)
VH: EVQLVQSGAEVKKPGQSLKISCKASGYSLTDNWIGWVRQKPGKGLEWMGIIYPGDSDTRYSPSFQGQVTISADKSINTAYLQWSSLKASDTAIYYCVGLDWNYNPLRYWGPGTLVTVSS
VL: QSVLTQPPSVSAAPGQKVTISCSGSSSDIGSNYVSWYQQFPGTAPKLLIYDNNKRPSAIPDRFSGSKSGTSATLGITGLQTGDEADYYCGTWDSRLGIAVFGGGTQLTVLG
notes: residue limits as in claims 56 and 57
As to B3, the “Mean absorbance at 405 nm” value in assay [9] is 0.018 absorbance at 405 nm; in assay [10], -0.01 absorbance at 405 nm; in [11], 0.02 absorbance at 405 nm; in assay [12], -0.01 absorbance at 405 nm; in [13], 0.033 absorbance at 405 nm; in assay [14] it was 0.007 absorbance at 405 nm. Moreover, the “Mean absorbance at 405 nm” value was 0.056 absorbance at 405 nm in [15] and -0.004 absorbance at 405 nm in assay [16].

B4: K1-70 IgG (antibody, V domains shown)
VH: EVQLVQSGAEVKKPGQSLKISCKASGYSLTDNWIGWVRQKPGKGLEWMGIIYPGDSDTRYSPSFQGQVTISADKSINTAYLQWSSLKASDTAIYYCVGLDWNYNPLRYWGPGTLVTVSS
VL: QSVLTQPPSVSAAPGQKVTISCSGSSSDIGSNYVSWYQQFPGTAPKLLIYDNNKRPSAIPDRFSGSKSGTSATLGITGLQTGDEADYYCGTWDSRLGIAVFGGGTQLTVLG
notes: Human IgG1 lambda purified from hetero-hybridoma supernatant
In the case of B4, the “Mean absorbance at 405 nm” value came out at 0.738 absorbance at 405 nm in assay [9]; 0.44 absorbance at 405 nm in assay [10]; 0.817 absorbance at 405 nm in assay [11]; 0.045 absorbance at 405 nm in assay [12]; 0.885 absorbance at 405 nm in assay [13]; 0.713 absorbance at 405 nm in [14]. For the same molecule, the “Mean absorbance at 405 nm” value came to 1.13 absorbance at 405 nm in assay [15] and 0.085 absorbance at 405 nm in [16].

B5: K1-18 IgG (antibody, V domains shown)
VH: EVQLVQSGAEVKKPGESLKISCKGSGYSFTNYWIGWVRQMPGKGLEWMGIIYPYDSDTRYSPSFEGQVTISADKSIRTAYLHWSSLKASDTAMYYCVRPRDGSYPYDAFDIWGQGTMVTVSS
VL: EIVLTQSPGTLSLSPGERATLSCRASQSVSNNYLAWYQQKPGQAPRLLIYGASSRATGIPDRFSGSGSGTDFTLTISRLEPEDFAVYYCQHCGSSLRAFGQGTKVEIKR
notes: Human IgG1 with kappa light chains, purified from hetero-hybridoma culture supernatant; also called human monoclonal autoantibody to the TSHR with TSH agonist (stimulating) activity
Turning to B5, the “Inhibition of binding (%)” value was 94.6% in assay [1]; 56.3% in assay [2]; -4% in assay [3]; 13.6% in [4]; 96.3% in [5]; 71.9% in assay [6]. Besides, the “Inhibition of binding (%)” value was 8.9% in assay [7] and 35.7% in assay [8].

B6: K1-18 IgG (antibody, V domains shown)
VH: EVQLVQSGAEVKKPGESLKISCKGSGYSFTNYWIGWVRQMPGKGLEWMGIIYPYDSDTRYSPSFEGQVTISADKSIRTAYLHWSSLKASDTAMYYCVRPRDGSYPYDAFDIWGQGTMVTVSS
VL: EIVLTQSPGTLSLSPGERATLSCRASQSVSNNYLAWYQQKPGQAPRLLIYGASSRATGIPDRFSGSGSGTDFTLTISRLEPEDFAVYYCQHCGSSLRAFGQGTKVEIKR
notes: Human IgG1 kappa purified from hetero-hybridoma supernatant
Consider B6, for which the “Mean absorbance at 405 nm” value in assay [9] amounted to 0.66 absorbance at 405 nm; in [10], 0.292 absorbance at 405 nm; in assay [11], 0.722 absorbance at 405 nm; in assay [12] it was 0.013 absorbance at 405 nm; in assay [13] it was 0.8 absorbance at 405 nm; in assay [14], 0.545 absorbance at 405 nm. For the same molecule, the “Mean absorbance at 405 nm” value came out at 1.2 absorbance at 405 nm in assay [15] and 0.136 absorbance at 405 nm in assay [16].

B7: K1-18 Fab (Fab, V domains shown)
VH: EVQLVQSGAEVKKPGESLKISCKGSGYSFTNYWIGWVRQMPGKGLEWMGIIYPYDSDTRYSPSFEGQVTISADKSIRTAYLHWSSLKASDTAMYYCVRPRDGSYPYDAFDIWGQGTMVTVSS
VL: EIVLTQSPGTLSLSPGERATLSCRASQSVSNNYLAWYQQKPGQAPRLLIYGASSRATGIPDRFSGSGSGTDFTLTISRLEPEDFAVYYCQHCGSSLRAFGQGTKVEIKR
notes: residue limits as in claim 65
Regarding B7, the “Mean absorbance at 405 nm” value in [9] was -0.002 absorbance at 405 nm; in [10], -0.011 absorbance at 405 nm; in [11], -0.007 absorbance at 405 nm; in assay [12], -0.011 absorbance at 405 nm; in assay [13], 0.008 absorbance at 405 nm; in assay [14], 0.002 absorbance at 405 nm. Besides, the “Mean absorbance at 405 nm” value is 0.049 absorbance at 405 nm in [15] and -0.004 absorbance at 405 nm in assay [16].
